Patent US20100260668A1 (published 2010)
Values joined by “and” are separate entries in the source; they are usually repeats but may differ in a detail not shown here. Equal values may be shown once.

B1: AB072 (anti-DLL4 (seq. 3) parent antibody) (antibody, human IgG1, V domains shown)
VH: EVQLQQSGPELVKPGASVKMSCKASGYTFTSYVINWVKQKPGQGLEWIGLINPYNDGTKYNEKFKVKATLTSDKSSSTAYMELSSLTSEDSAVYYCASYYYGSRYYFDYWGQGTTLTVSS
VL: DIQMTQSSSYLSVSLGGRVTITCKASDHINNWLAWYQQKPGNAPRLLISGATSLETGVPSRFSGSGSGKDYTLSITSLQTEDVATYYCQQYWSIPLTFGAGTKLELKR
notes: also called AB072VH; AB072VL
B2: AB069 (anti-DLL4 (seq. 2) parent antibody) (antibody, human IgG1, V domains shown)
VH: QVQLVQSGAEVKKPGASVKISCKASGYSFTAYYIHWVKQAPGQGLEWIGYISSYNGATNYNQKFKGRVTFTTDTSTSTAYMELRSLRSDDTAVYYCARDYDYDVGMDYWGQGTLVTVSS
VL: DIVMTQSPDSLAVSLGERATISCRASESVDNYGISFMKWFQQKPGQPPKLLIYAASNQGSGVPDRFSGSGSGTDFTLTISSLQAEDVAVYYCQQSKEVPWTFGGGTKVEIKR
notes: also called AB069VH; AB069VL
B3: AB073 (anti-DLL4 (seq. 4) parent antibody) (antibody, human IgG1, V domains shown)
VH: EVQLQQSGPELEKPGASVKISCKASGYSFTGYNMNWVKQSNGKSLEWIGNIDPYFGGTNYNQKFKGKATLTVDKSSSTAYMQLKSLTSEDSAVYYCARNYDYDGGCFDYWGQGTTLTVSS
VL: QAVVTQESALTTSPGETVTLTCRSSTGAVTTSNYANWVQEKPDHLFTGLIGGTNNRAPGVPARFSGSLIGDKAALTITGAQTEDEAIYFCALWYSNHWVFGGGTKLTVLG
notes: also called AB073VH; AB073VL
B4: AB015 (anti-DLL-4 (seq. 1) parent antibody) (antibody, human IgG1, V domains shown)
VH: EVQLVESGGGLVQPGGSLRLSCAASGFTFTDNWISWVRQAPGKGLEWVGYISPNSGFTYYADSVKGRFTISADTSKNTAYLQMNSLRAEDTAVYYCARDNFGGYFDYWGQGTLVTVSS
VL: DIQMTQSPSSLSASVGDRVTITCRASQDVSTAVAWYQQKPGKAPKLLIYSASFLYSGVPSRFSGSGSGTDFTLTISSLQPEDFATTYYCQQSYTGTVTFGQGTKVEIKR
notes: also called AB015VH; AB015VL
B5: DVD471 (DLL4/VEGF DVD-Ig) (bispecific antibody, human IgG1)
VH: EVQLVESGGGLVQPGGSLRLSCAASGFTFTDNWISWVRQAPGKGLEWVGYISPNSGFTYYADSVKGRFTISADTSKNTAYLQMNSLRAEDTAVYYCARDNFGGYFDYWGQGTLVTVSSASTKGPSVFPLAPEVQLVESGGGLVQPGGSLRLSCAASGFTISDYWIHWVRQAPGKGLEWVAGITPAGGYTYYADSVKGRFTISADTSKNTAYLQMNSLRAEDTAVYYCARFVFFLPYAMDYWGQGTLVTVSS
VL: DIQMTQSPSSLSASVGDRVTITCRASQDVSTAVAWYQQKPGKAPKLLIYSASFLYSGVPSRFSGSGSGTDFTLTISSLQPEDFATTYYCQQSYTGTVTFGQGTKVEIKRTVAAPSVFIFPPDIQMTQSPSSLSASVGDRVTITCRASQDVSTAVAWYQQKPGKAPKLLIYSASFLYSGVPSRFSGSGSGTDFTLTISSLQPEDFATYYCQQSYTTPPTFGQGTKVEIKR
notes: HC linker long, LC linker long; also called DVD471H; DVD471L
B6: DVD444 (VEGF/DLL4 DVD-Ig) (bispecific antibody, human IgG1)
VH: EVQLVESGGGLVQPGGSLRLSCAASGFTISDYWIHWVRQAPGKGLEWVAGITPAGGYTYYADSVKGRFTISADTSKNTAYLQMNSLRAEDTAVYYCARFVFFLPYAMDYWGQGTLVTVSSASTKGPQVQLVQSGAEVKKPGASVKISCKASGYSFTAYYIHWVKQAPGQGLEWIGYISSYNGATNYNQKFKGRVTFTTDTSTSTAYMELRSLRSDDTAVYYCARDYDYDVGMDYWGQGTLVTVSS
VL: DIQMTQSPSSLSASVGDRVTITCRASQDVSTAVAWYQQKPGKAPKLLIYSASFLYSGVPSRFSGSGSGTDFTLTISSLQPEDFATYYCQQSYTTPPTFGQGTKVEIKRTVAAPDIVMTQSPDSLAVSLGERATISCRASESVDNYGISFMKWFQQKPGQPPKLLIYAASNQGSGVPDRFSGSGSGTDFTLTISSLQAEDVAVYYCQQSKEVPWTFGGGTKVEIKR
notes: HC linker short, LC linker short; also called DVD444H; DVD444L
B7: DVD514 (VEGF/DLL4 DVD-Ig) (bispecific antibody, human IgG1)
VH: EVQLVESGGGLVQPGGSLRLSCAASGFTISDYWIHWVRQAPGKGLEWVAGITPAGGYTYYADSVKGRFTISADTSKNTAYLQMNSLRAEDTAVYYCARFVFFLPYAMDYWGQGTLVTVSSASTKGPEVQLQQSGPELEKPGASVKISCKASGYSFTGYNMNWVKQSNGKSLEWIGNIDPYFGGTNYNQKFKGKATLTVDKSSSTAYMQLKSLTSEDSAVYYCARNYDYDGGCFDYWGQGTTLTVSS
VL: DIQMTQSPSSLSASVGDRVTITCRASQDVSTAVAWYQQKPGKAPKLLIYSASFLYSGVPSRFSGSGSGTDFTLTISSLQPEDFATYYCQQSYTTPPTFGQGTKVEIKRTVAAPQAVVTQESALTTSPGETVTLTCRSSTGAVTTSNYANWVQEKPDHLFTGLIGGTNNRAPGVPARFSGSLIGDKAALTITGAQTEDEAIYFCALWYSNHWVFGGGTKLTVLG
notes: HC linker short, LC linker short; also called DVD514H; DVD514L
B8: DVD490 (VEGF/DLL4 DVD-Ig) (bispecific antibody, human IgG1)
VH: EVQLVESGGGLVQPGGSLRLSCAASGFTISDYWIHWVRQAPGKGLEWVAGITPAGGYTYYADSVKGRFTISADTSKNTAYLQMNSLRAEDTAVYYCARFVFFLPYAMDYWGQGTLVTVSSASTKGPEVQLQQSGPELVKPGASVKMSCKASGYTFTSYVINWVKQKPGQGLEWIGLINPYNDGTKYNEKFKVKATLTSDKSSSTAYMELSSLTSEDSAVYYCASYYYGSRYYFDYWGQGTTLTVSS
VL: DIQMTQSPSSLSASVGDRVTITCRASQDVSTAVAWYQQKPGKAPKLLIYSASFLYSGVPSRFSGSGSGTDFTLTISSLQPEDFATYYCQQSYTTPPTFGQGTKVEIKRTVAAPDIQMTQSSSYLSVSLGGRVTITCKASDHINNWLAWYQQKPGNAPRLLISGATSLETGVPSRFSGSGSGKDYTLSITSLQTEDVATYYCQQYWSIPLTFGAGTKLELKR
notes: HC linker short, LC linker short; also called DVD490H; DVD490L
B9: DVD466 (VEGF/DLL4 DVD-Ig) (bispecific antibody, human IgG1)
VH: EVQLVESGGGLVQPGGSLRLSCAASGFTISDYWIHWVRQAPGKGLEWVAGITPAGGYTYYADSVKGRFTISADTSKNTAYLQMNSLRAEDTAVYYCARFVFFLPYAMDYWGQGTLVTVSSASTKGPEVQLVESGGGLVQPGGSLRLSCAASGFTFTDNWISWVRQAPGKGLEWVGYISPNSGFTYYADSVKGRFTISADTSKNTAYLQMNSLRAEDTAVYYCARDNFGGYFDYWGQGTLVTVSS
VL: DIQMTQSPSSLSASVGDRVTITCRASQDVSTAVAWYQQKPGKAPKLLIYSASFLYSGVPSRFSGSGSGTDFTLTISSLQPEDFATYYCQQSYTTPPTFGQGTKVEIKRTVAAPDIQMTQSPSSLSASVGDRVTITCRASQDVSTAVAWYQQKPGKAPKLLIYSASFLYSGVPSRFSGSGSGTDFTLTISSLQPEDFATTYYCQQSYTGTVTFGQGTKVEIKR
notes: HC linker short, LC linker short; also called DVD466H; DVD466L
B10: DVD465 (DLL4/VEGF DVD-Ig) (bispecific antibody, human IgG1)
VH: EVQLVESGGGLVQPGGSLRLSCAASGFTFTDNWISWVRQAPGKGLEWVGYISPNSGFTYYADSVKGRFTISADTSKNTAYLQMNSLRAEDTAVYYCARDNFGGYFDYWGQGTLVTVSSASTKGPEVQLVESGGGLVQPGGSLRLSCAASGFTISDYWIHWVRQAPGKGLEWVAGITPAGGYTYYADSVKGRFTISADTSKNTAYLQMNSLRAEDTAVYYCARFVFFLPYAMDYWGQGTLVTVSS
VL: DIQMTQSPSSLSASVGDRVTITCRASQDVSTAVAWYQQKPGKAPKLLIYSASFLYSGVPSRFSGSGSGTDFTLTISSLQPEDFATTYYCQQSYTGTVTFGQGTKVEIKRTVAAPDIQMTQSPSSLSASVGDRVTITCRASQDVSTAVAWYQQKPGKAPKLLIYSASFLYSGVPSRFSGSGSGTDFTLTISSLQPEDFATYYCQQSYTTPPTFGQGTKVEIKR
notes: HC linker short, LC linker short; also called DVD465H; DVD465L
B11: DVD443 (DLL4/VEGF DVD-Ig) (bispecific antibody, human IgG1)
VH: QVQLVQSGAEVKKPGASVKISCKASGYSFTAYYIHWVKQAPGQGLEWIGYISSYNGATNYNQKFKGRVTFTTDTSTSTAYMELRSLRSDDTAVYYCARDYDYDVGMDYWGQGTLVTVSSASTKGPEVQLVESGGGLVQPGGSLRLSCAASGFTISDYWIHWVRQAPGKGLEWVAGITPAGGYTYYADSVKGRFTISADTSKNTAYLQMNSLRAEDTAVYYCARFVFFLPYAMDYWGQGTLVTVSS
VL: DIVMTQSPDSLAVSLGERATISCRASESVDNYGISFMKWFQQKPGQPPKLLIYAASNQGSGVPDRFSGSGSGTDFTLTISSLQAEDVAVYYCQQSKEVPWTFGGGTKVEIKRTVAAPDIQMTQSPSSLSASVGDRVTITCRASQDVSTAVAWYQQKPGKAPKLLIYSASFLYSGVPSRFSGSGSGTDFTLTISSLQPEDFATYYCQQSYTTPPTFGQGTKVEIKR
notes: HC linker short, LC linker short; also called DVD443H; DVD443L
B12: DVD489 (DLL4/VEGF DVD-Ig) (bispecific antibody, human IgG1)
VH: EVQLQQSGPELVKPGASVKMSCKASGYTFTSYVINWVKQKPGQGLEWIGLINPYNDGTKYNEKFKVKATLTSDKSSSTAYMELSSLTSEDSAVYYCASYYYGSRYYFDYWGQGTTLTVSSASTKGPEVQLVESGGGLVQPGGSLRLSCAASGFTISDYWIHWVRQAPGKGLEWVAGITPAGGYTYYADSVKGRFTISADTSKNTAYLQMNSLRAEDTAVYYCARFVFFLPYAMDYWGQGTLVTVSS
VL: DIQMTQSSSYLSVSLGGRVTITCKASDHINNWLAWYQQKPGNAPRLLISGATSLETGVPSRFSGSGSGKDYTLSITSLQTEDVATYYCQQYWSIPLTFGAGTKLELKRTVAAPDIQMTQSPSSLSASVGDRVTITCRASQDVSTAVAWYQQKPGKAPKLLIYSASFLYSGVPSRFSGSGSGTDFTLTISSLQPEDFATYYCQQSYTTPPTFGQGTKVEIKR
notes: HC linker short, LC linker short; also called DVD489H; DVD489L
B13: DVD513 (DLL4/VEGF DVD-Ig) (bispecific antibody, human IgG1)
VH: EVQLQQSGPELEKPGASVKISCKASGYSFTGYNMNWVKQSNGKSLEWIGNIDPYFGGTNYNQKFKGKATLTVDKSSSTAYMQLKSLTSEDSAVYYCARNYDYDGGCFDYWGQGTTLTVSSASTKGPEVQLVESGGGLVQPGGSLRLSCAASGFTISDYWIHWVRQAPGKGLEWVAGITPAGGYTYYADSVKGRFTISADTSKNTAYLQMNSLRAEDTAVYYCARFVFFLPYAMDYWGQGTLVTVSS
VL: QAVVTQESALTTSPGETVTLTCRSSTGAVTTSNYANWVQEKPDHLFTGLIGGTNNRAPGVPARFSGSLIGDKAALTITGAQTEDEAIYFCALWYSNHWVFGGGTKLTVLGQPKAAPDIQMTQSPSSLSASVGDRVTITCRASQDVSTAVAWYQQKPGKAPKLLIYSASFLYSGVPSRFSGSGSGTDFTLTISSLQPEDFATYYCQQSYTTPPTFGQGTKVEIKR
notes: HC linker short, LC linker short; also called DVD513H; DVD513L

Molecular target: T1, DLL4 (DLL4 ECD/His tag, R&D Systems 1506-D4-050) (UniProt Q9NR61 27-529)
T1 construct: extracellular domain; not shown: His tag
Assay: Direct bind ELISA on DLL4; reference antibody

EC50 | Binder
63400 pM and 63200 pM | B1
230 pM and 240 pM | B2
220 pM and 210 pM | B3
600 pM and 580 pM | B4

Molecular target: T1, DLL4 (DLL4 ECD/His tag, R&D Systems …)
Assay: Direct bind ELISA on DLL4; DLL4 domain N-term., HC long, LC long

Binder | EC50 [pM]
B5 | 890

Molecular target: T1, DLL4 (DLL4 ECD/His tag, R&D Systems …)
Assay: Direct bind ELISA on DLL4; DLL4 domain C-term., HC short, LC short

EC50 [pM] | Binder
30500 | B6
21000 | B7
9270 | B8
19800 | B9

Molecular target: T1, DLL4 (DLL4 ECD/His tag, R&D Systems …)
Assay: Direct bind ELISA on DLL4; DLL4 domain N-term., HC short, LC short

EC50 [pM] | Binder
570 | B10
200 | B11
620 | B12
660 | B13
